Laboratory results taken from article PMC4911631.

Columns and labels:
[1] = molecular target: PRX1, recombinant (Chlamydomonas reinhardtii)
[2] = molecular target: PRX1, recombinant (Chlamydomonas reinhardtii); remark: listed apart in the source

| maximal electron transfer rate to PRX1 at saturating Ca2+ against WT CRX (Supplementary Fig. 1b) [1] | reduction of PRX1 by CRX (NADPH oxidation) without Ca2+ (EGTA added) against with Ca2+ [2] | Substance |
| --- | --- | --- |
| 3 fold | – | calredoxin (CRX) Lys263Ile, recombinant (enzyme) |
| – | 10 fold | calredoxin (CRX), wild type, recombinant (enzyme) |
